For experiment [1], the target named is T1, human galectin-9 CRD2 domain (human, UniProt O00182 227-355, limits assumed).
T1 construct: domain: CRD2; also called CRD2 domain of galectin-9
In words: bead based binding.

For experiment [2], the target named is T2, mouse galectin-9 CRD2 domain (mouse, UniProt O08573 225-353, limits assumed).
T2 construct: domain: CRD2; also called mouse CRD2 domain
Nature of the experiment: bead based binding.

The target of experiment [3] is T3, rat galectin-9 CRD2 domain (rat, UniProt P97840 226-354, limits assumed).
T3 construct: domain: CRD2; also called rat CRD2 domain
Nature of the experiment: bead based binding.

In experiment [4] the target is T4, cynomolgus galectin-9 CRD2 domain (cynomolgus monkey, UniProt A0A7N9IHL9 227-355).
T4 construct: domain: CRD2; also called cynomolgus CRD2 domain; CRD2 domain of cynomolgus monkey galectin-9
Nature of the experiment: bead based binding.

The target of experiment [5] is T2, mouse galectin-9 CRD2 domain. In words: SPR, One Step method on a Pioneer SPR. A general note: Surface plasmon resonance follows binding to a sensor surface in real time, without labels.
Experiment [6] addresses T1, human galectin-9 CRD2 domain. Nature of the experiment: ELISA, antibody titrated over immobilized Galectin-9 CRD2. (ELISA stands for enzyme-linked immunosorbent assay.)
The target of experiment [7] is T5, human galectin-9 CRD1 domain (human, UniProt O00182 15-148, limits assumed).
T5 construct: domain: CRD1; also called CRD1 domain of galectin-9 protein
In words: bead based binding to human galectin-9 CRD1 and CRD2 domains.

In experiment [8] the target is T6, human galectin-9 on the cell surface (CRL-2134 cell line; patient tumor-derived cells) (human, UniProt O00182 1-355).
T6 construct: whole, on cells
Nature of the experiment: cell based saturation curve, surface staining of CRL-2134 cells (fraction of positive cells).

T2 sequence (O08573 225-353 limits assumed): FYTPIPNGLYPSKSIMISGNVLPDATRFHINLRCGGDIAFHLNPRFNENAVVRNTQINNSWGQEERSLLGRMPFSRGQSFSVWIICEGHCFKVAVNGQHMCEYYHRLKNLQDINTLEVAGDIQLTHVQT
T1 sequence (O00182 227-355 limits assumed): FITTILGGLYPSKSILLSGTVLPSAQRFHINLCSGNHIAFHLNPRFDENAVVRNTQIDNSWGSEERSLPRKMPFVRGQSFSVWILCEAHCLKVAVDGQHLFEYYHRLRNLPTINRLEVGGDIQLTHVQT
T5 sequence (O00182 15-148 limits assumed): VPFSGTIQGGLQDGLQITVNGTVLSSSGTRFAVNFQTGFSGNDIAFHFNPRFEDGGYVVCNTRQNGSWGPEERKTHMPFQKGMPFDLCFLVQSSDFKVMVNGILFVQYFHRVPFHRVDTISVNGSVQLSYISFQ
T6 sequence (O00182 whole entry): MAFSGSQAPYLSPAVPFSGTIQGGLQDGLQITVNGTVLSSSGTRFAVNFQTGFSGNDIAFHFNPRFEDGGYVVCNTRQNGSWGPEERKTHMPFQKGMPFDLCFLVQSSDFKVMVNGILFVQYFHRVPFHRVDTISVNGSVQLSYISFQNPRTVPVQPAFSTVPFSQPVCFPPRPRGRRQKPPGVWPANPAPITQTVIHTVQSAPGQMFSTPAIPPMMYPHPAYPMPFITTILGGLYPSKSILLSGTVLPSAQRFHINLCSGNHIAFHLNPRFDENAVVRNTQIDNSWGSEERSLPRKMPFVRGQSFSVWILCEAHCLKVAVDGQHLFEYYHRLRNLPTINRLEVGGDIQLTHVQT
T3 sequence (P97840 226-354 limits assumed): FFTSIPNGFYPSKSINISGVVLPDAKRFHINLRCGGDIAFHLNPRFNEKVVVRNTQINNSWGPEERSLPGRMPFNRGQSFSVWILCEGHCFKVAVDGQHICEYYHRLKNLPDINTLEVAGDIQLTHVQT

B1: G9.2-17 mIgG1 (mouse IgG1 version of G9.2-17) (antibody, V domains shown)
VH: EVQLVESGGGLVQPGGSLRLSCAASGFTVSSSSIHWVRQAPGKGLEWVAYISSSSGYTYYADSVKGRFTISADTSKNTAYLQMNSLRAEDTAVYYCARYWSYPSWWPYRGMDYWGQGTLVTVSS
VL: DIQMTQSPSSLSASVGDRVTITCRASQSVSSAVAWYQQKPGKAPKLLIYSASSLYSGVPSRFSGSRSGTDFTLTISSLQPEDFATYYCQQSSTDPITFGQGTKVEIKR
notes: Mouse IgG1 backbone; also called mIgG1 G9.2-17; G9.2-17 IgG1 mouse mAb
A word on the Kd: it is the constant that tells how readily two partners part at equilibrium. Read a high Kd as lower affinity. Turning to B1, the Kd in experiment [1] was found to be 0.18 nM; in experiment [2], 0.3 nM; in experiment [3], 0.35 nM; in experiment [4], 0.3 nM; in experiment [5], 3.05 nM; in experiment [6], 0.45 nM. The molecule further gave a Kd in experiment [8] of 2.9 nM. Besides, the binding result in experiment [7] is recorded as “no binding”.

B2: anti-Galectin-9 antibody G9.2-17 (IgG4) (antibody, V domains shown)
VH: B1 VH
VL: B1 VL
notes: also called G9.2-17 (Ig4); G9.2-17 hIgG4 Fab Arm Exchange mut
Consider B2, for which the Kd in experiment [1] came to 0.15 nM; in experiment [2], 0.3 nM; in experiment [5], 1.8 nM; in experiment [6], 0.42 nM; in experiment [8] it was 0.41 nM. Besides, the binding result in experiment [7] is “no binding”.
